The target in assay [1] is T1, recombinant human interleukin 12 (p40/p35 heterodimer) (human, UniProt P29460 23-328; P29459 23-219).
T1 chain 1: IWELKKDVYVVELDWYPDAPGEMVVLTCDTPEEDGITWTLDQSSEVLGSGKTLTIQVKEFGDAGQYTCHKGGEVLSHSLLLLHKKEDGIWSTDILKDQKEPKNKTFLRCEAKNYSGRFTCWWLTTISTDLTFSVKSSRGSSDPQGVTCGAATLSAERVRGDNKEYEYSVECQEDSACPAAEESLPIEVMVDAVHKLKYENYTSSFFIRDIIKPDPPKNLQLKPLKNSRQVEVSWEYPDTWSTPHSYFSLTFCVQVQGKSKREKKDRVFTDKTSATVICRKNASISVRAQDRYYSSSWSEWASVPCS
T1 chain 2: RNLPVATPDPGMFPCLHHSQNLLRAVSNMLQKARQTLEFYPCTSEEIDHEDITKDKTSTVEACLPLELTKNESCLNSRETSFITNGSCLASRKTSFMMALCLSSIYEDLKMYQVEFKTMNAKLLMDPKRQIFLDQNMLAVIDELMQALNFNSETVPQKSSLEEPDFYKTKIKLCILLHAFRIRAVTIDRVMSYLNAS
The experiment in a line: BIAcore.

The target of assay [2] is T1, recombinant human interleukin 12 …. In words: BIAcore. On the technique in general: Surface plasmon resonance follows binding to a sensor surface in real time, without labels.

The text below walks through data of patent US20110123544A1 (published 2011).

Where two headings read alike, the source gives them in different places.

Turning to LIRYDGSNKYYADSVKG [Y61 H50 L], the koff in assay [1] amounted to 0.00044 s⁻¹.
As for FITYDGSNKYYADSVKG [Y61 H52 T], the koff in assay [1] amounted to 0.000374 s⁻¹.
On to FIRYEGSNKYYADSVKG [Y61 H53 E], for which the koff in assay [1] came to 0.000399 s⁻¹.
Same read-out and setting: then FILYDGSNKYYADSVKG [Y61 H52 L], with 0.000347 s⁻¹; and FIRYFGSNKYYADSVKG [Y61 H53 F], with 0.00169 s⁻¹.
As to FTFSIYGMH [Y61 H31 I], the koff in assay [2] came out at 0.000334 s⁻¹.
As to FTFISYGMH [Y61 H30 I], in assay [2], the koff is 0.000207 s⁻¹.
For the molecule FIRYVGSNKYYADSVKG [Y61 H53 V], the koff in assay [1] stood at 0.00044 s⁻¹.
Consider FIRYDESNKYYADSVKG [Y61 H54 E], for which the koff in assay [1] was found to be 0.000351 s⁻¹.
As to FIRYDVSNKYYADSVKG [Y61 H54 V], the koff in assay [1] turned out to be 0.000435 s⁻¹.
For the molecule FIRYAGSNKYYADSVKG [Y61 H53 A], the koff in assay [1] was 0.000404 s⁻¹.
Regarding TIRYDGSNKYYADSVKG [Y61 H50 T], in assay [1], the dissociation rate constant (koff) was 0.000205 s⁻¹.
On the same count and under the same terms, then YIRYDGSNKYYADSVKG [Y61 H50 Y], with 0.00023 s⁻¹.
Consider FTFSSHGMH [Y61 H32 H], for which the koff in assay [2] was determined as 0.000461 s⁻¹.
Regarding FTFGSYGMH [Y61 H30 G], the koff in assay [2] worked out at 0.000233 s⁻¹.
With FTFSNYGMH [Y61 H31 N], the koff in assay [2] stood at 0.000191 s⁻¹.
Turning to FTFSSNGMH [Y61 H32 N], the koff in assay [2] turned out to be 0.00297 s⁻¹.
As for FIGYDGSNKYYADSVKG [Y61 H52 G], in assay [1], the koff amounted to 0.000321 s⁻¹.
For the molecule FIRYLGSNKYYADSVKG [Y61 H53 L], in assay [1], the koff was 0.0011 s⁻¹.
In the case of FTFSSYAMH [Y61 H33 A], the koff in assay [2] was 0.000273 s⁻¹.
Consider FIAYDGSNKYYADSVKG [Y61 H52 A], for which the koff in assay [1] is 0.000171 s⁻¹.
FTFSSRGMH [Y61 H32 R]: the koff in assay [2] is 0.00449 s⁻¹.
For FIRYYGSNKYYADSVKG [Y61 H53 Y], the koff in assay [1] amounted to 0.000611 s⁻¹.
For the molecule FTFTSYGMH [Y61 H30 T], the koff in assay [2] stood at 0.00032 s⁻¹.
As for FIQYDGSNKYYADSVKG [Y61 H52 Q], the koff in assay [1] was determined as 0.000285 s⁻¹.
For FTFSYYGMH [Y61 H31 Y], the koff in assay [2] amounted to 0.000398 s⁻¹.
Consider FIRYDRSNKYYADSVKG [Y61 H54 R], for which, in assay [1], the koff came to 2.5e-05 s⁻¹.
Turning to HIRYDGSNKYYADSVKG [Y61 H50 H], in assay [1], the koff was 0.000309 s⁻¹.
For the molecule FIRYIGSNKYYADSVKG [Y61 H53 I], in assay [1], the koff amounted to 0.000944 s⁻¹.
Turning to FIRYNGSNKYYADSVKG [Y61 H53 N], the koff in assay [1] came out at 0.000727 s⁻¹.
For FIRYDDSNKYYADSVKG [Y61 H54 D], in assay [1], the koff was 0.000455 s⁻¹.
Consider FIRYQGSNKYYADSVKG [Y61 H53 Q], for which the koff in assay [1] amounted to 0.000792 s⁻¹.
For FIRYKGSNKYYADSVKG [Y61 H53 K], the koff in assay [1] was determined as 0.00158 s⁻¹.
Regarding FIRYDYSNKYYADSVKG [Y61 H54 Y], the koff in assay [1] came to 0.000646 s⁻¹.
As for FISYDGSNKYYADSVKG [Y61 H52 S], the koff in assay [1] amounted to 0.000292 s⁻¹.
Turning to FTFWSYGMH [Y61 H30 W], in assay [2], the koff is 0.000216 s⁻¹.
FTFVSYGMH [Y61 H30 V]: in assay [2], the koff amounted to 0.000399 s⁻¹.
FIRYDTSNKYYADSVKG [Y61 H54 T]: the koff in assay [1] stood at 0.000644 s⁻¹.
For the molecule QIRYDGSNKYYADSVKG [Y61 H50 Q], the koff in assay [1] is 0.00042 s⁻¹.
As to FIKYDGSNKYYADSVKG [Y61 H52 K], in assay [1], the koff was found to be 0.000262 s⁻¹.
On the same count and under the same terms, then FIEYDGSNKYYADSVKG [Y61 H52 E], with 0.000318 s⁻¹.
On the same count and under the same terms, then FIRYDNSNKYYADSVKG [Y61 H54 N], with 0.000447 s⁻¹.
With CIRYDGSNKYYADSVKG [Y61 H50 C], the koff in assay [1] turned out to be 0.000285 s⁻¹.
Turning to FIHYDGSNKYYADSVKG [Y61 H52 H], the koff in assay [1] is 0.000407 s⁻¹.
FIRYDSSNKYYADSVKG [Y61 H54 S]: in assay [1], the koff came to 0.000373 s⁻¹.
FIVYDGSNKYYADSVKG [Y61 H52 V]: in assay [1], the koff stood at 0.000317 s⁻¹.
As to FTFKSYGMH [Y61 H30 K], in assay [2], the koff came to 0.000225 s⁻¹.
For FIRYRGSNKYYADSVKG [Y61 H53 R], in assay [1], the koff was found to be 0.00167 s⁻¹.
On to FTFSSYDMH [Y61 H33 D], for which the koff in assay [2] worked out at 0.00152 s⁻¹.
As for FIRYTGSNKYYADSVKG [Y61 H53 T], the koff in assay [1] was 0.0005 s⁻¹.
Still for that read-out and setting: in the case of FIRYDKSNKYYADSVKG [Y61 H54 K] it was 0.000407 s⁻¹.
Take FTFSSYPMH [Y61 H33 P]: the koff in assay [2] was determined as 0.0016 s⁻¹.
As to FIRYSGSNKYYADSVKG [Y61 H53 S], the koff in assay [1] worked out at 0.000368 s⁻¹.
Regarding FTFSSTGMH [Y61 H32 T], the koff in assay [2] came out at 0.00148 s⁻¹.
With FIRYDQSNKYYADSVKG [Y61 H54 Q], in assay [1], the koff was found to be 0.000316 s⁻¹.
Turning to KIRYDGSNKYYADSVKG [Y61 H50 K], the koff in assay [1] turned out to be 0.000612 s⁻¹.
Consider FTFSSIGMH [Y61 H32 I], for which the koff in assay [2] amounted to 0.00161 s⁻¹.
FTFSSYNMH [Y61 H33 N]: the koff in assay [2] stood at 0.000308 s⁻¹.
Consider FIYYDGSNKYYADSVKG [Y61 H52 Y], for which the koff in assay [1] came to 0.000298 s⁻¹.
Turning to EIRYDGSNKYYADSVKG [Y61 H50 E], in assay [1], the koff was found to be 0.000347 s⁻¹.
On the same count and under the same terms, in the case of NIRYDGSNKYYADSVKG [Y61 H50 N] it was 0.000344 s⁻¹; in that of FIWYDGSNKYYADSVKG [Y61 H52 W], 0.000351 s⁻¹.

By koff is commonly meant a measure of how fast the partners let go of each other.
